{"source": "patent US20080181886A1", "about": "(Genentech, published 2008);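 for F' APRIL: ligand versus display occurrence-to-degeneracy ratio and higher means enriched by binding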;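 for F' BAFF: ligand versus display occurrence-to-degeneracy ratio and higher means enriched by binding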", "key": {"[1]": {"biological_target": "T1, human BAFF (human, UniProt Q9Y275 82-285, limits assumed)", "T1 sequence (Q9Y275 82-285 limits assumed)": "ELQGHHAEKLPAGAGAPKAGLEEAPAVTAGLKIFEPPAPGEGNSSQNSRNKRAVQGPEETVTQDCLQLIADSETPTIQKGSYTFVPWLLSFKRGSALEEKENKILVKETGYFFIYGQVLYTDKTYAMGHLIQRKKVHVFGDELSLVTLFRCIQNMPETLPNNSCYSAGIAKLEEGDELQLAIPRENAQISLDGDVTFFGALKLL", "assay": "shotgun scan, phage display", "description": "(§1) Phage from each of the libraries described above were subjected to rounds of binding selection against APRIL, BAFF, or anti-tag antibody (3C8:2F4 Genentech, Inc.) immobilized on 96-well Nunc Maxisorp immunoplates (Sidhu, 2001). BSA-coated wells were used to determine non-specific background binding. Phage eluted from each target were propagated in E. coli XL1-Blue in the presence of M13K07 helper phage; amplified phage were used for selection against the same target in the […] round. […] Enrichment was calculated from the ratio of the phage titer eluted from the target-coated wells to the phage titer eluted from the BSA-coated wells. Individual clones from each library and selection target were then grown in a 96-well format in 400 ul of 2YT medium supplemented with carbenicillin and KO7 helper phage. […] Sequences of acceptable quality were translated and aligned. For APRIL-binding, 71, 40, and 54 sequences were analyzed from libraries one, two and three, respectively. For BAFF-binding, 70, 50, and 53 sequences were analyzed for libraries one, two and three, respectively. For the display selection, a minimum of 47 sequences were analyzed for each library. […] F values describe the effect of mutation on target binding, while accounting for differences in display efficiencies, with values >1 representing deleterious mutations and those <1 representing favorable mutations."}, "[2]": {"biological_target": "T2, Murine APRIL (mouse, UniProt Q9D777 105-241, limits assumed)", "T2 sequence (looked up)": "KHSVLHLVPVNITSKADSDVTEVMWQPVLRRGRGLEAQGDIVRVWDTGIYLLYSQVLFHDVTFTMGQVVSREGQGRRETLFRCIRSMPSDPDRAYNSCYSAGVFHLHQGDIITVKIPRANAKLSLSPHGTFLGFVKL", "assay": "shotgun scan, phage display", "description": "as §1"}, "[3]": {"biological_target": "T1, human BAFF", "assay": "NNS library, phage display"}, "[4]": {"biological_target": "T2, Murine APRIL", "assay": "NNS library, phage display"}, "[5]": {"biological_target": "T3, TRX-APRIL (mouse, UniProt Q9D777 104-241)", "T3 construct": "Named only as TRX-APRIL", "T3 sequence (looked up)": "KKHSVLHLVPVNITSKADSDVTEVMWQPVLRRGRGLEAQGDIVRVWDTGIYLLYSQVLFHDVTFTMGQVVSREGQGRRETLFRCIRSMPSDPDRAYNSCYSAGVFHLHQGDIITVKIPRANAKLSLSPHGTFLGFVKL", "assay": "SPR competition: ligand in solution against immobilized BCMA-Fc", "procedure": "(§2) Surface plasmon resonance (SPR) measurements on a BIAcore 3000 instrument (Pharmacia Biosensor) were used to measure binding affinities of receptors to immobilized APRIL and BAFF by competition binding. […] In all experiments flow cell 1 was ethanolamine-blocked and used as the reference cell. Washing with 10 mM HCl regenerated flow cells between sample injections. […] The concentration of ligand that provided a slope of about 1 for the initial on-rate of the observed sensorgrams was selected as the fixed concentration to be used in the competition experiments. In all experiments where BAFE was the ligand, the buffer used was composed of 10 mM HEPES, pH 7.2, 150 mM NaCl, and 0.005% Tween-20. In all experiments where TRX-APRIL was the ligand selected, the buffer was composed of 20 mM Tris-HCl, pH 8.0, 200 mM NaCl, and 0.005% Tween-20. […] A linear fit of the initial on-rate of the observed sensorgrams was used to calculate the binding rate (V). The IC₅₀ values were calculated using a four-parameter curve fit (y=((m1−m4)/(1+(m0/m3)̂m2))+m4) of the initial binding rates for the receptor/control (Vᵢ/Vₒ) as a function of receptor concentration."}, "[6]": {"biological_target": "T1, human BAFF", "assay": "SPR competition: ligand in solution against immobilized BCMA-Fc", "procedure": "as §2"}}, "data": [{"binder": "SLSCRKEQGKFYDHLLRDCISCASTCGQHPKQCAYFCENKLR (receptor, phage library variant, format as m9)", "note": "[TACI_d2 I92T]", "values": [{"measurement": "F (BAFF)", "setting": "[1]", "result": 0.9}, {"measurement": "F (APRIL)", "setting": "[2]", "result": 6}, {"measurement": "F' BAFF", "setting": "[3]", "result": 7}, {"measurement": "F' APRIL", "setting": "[4]", "result": 3}]}, {"binder": "SLSCRKEQGKFYDHLLRDCISCASVCGQHPKQCAYFCENKLR (receptor, phage library variant, format as m9)", "note": "[TACI_d2 I92V]", "values": [{"measurement": "F (BAFF)", "setting": "[1]", "result": 0.5}, {"measurement": "F (APRIL)", "setting": "[2]", "result": 3.3}, {"measurement": "F' BAFF", "setting": "[3]", "result": 9}, {"measurement": "F' APRIL", "setting": "[4]", "result": 6}]}, {"binder": "GSPWSLSCRKEQGKFYDHLLRDCISCASICGQHPKQCAYFCENKLR (receptor, E. coli, cleaved from TRX-His fusion; residue numbers are those of native human TACI (293 aa); also called TACI CRD2)", "note": "[TACI_d2 (second cysteine-rich domain, CRD2, residues 68-109 of human TACI)]", "values": [{"measurement": "IC50", "setting": "[5]", "result": 6, "unit": "nM"}, {"measurement": "IC50", "setting": "[6]", "result": 2, "unit": "nM"}]}]}
